The RNAGym collection of RNA variant scans (doi:10.1073/pnas.2313332121)
Variants at the floor of the assay were thinned out.

B1: TPR 5TU (parent)
chain: GGAUCUUCUCGAUCUAACAAAAAAGACAAAUCUGCCACAAAGCUUGAGAGCAUCUUCGGAUGCAGAGGCGGCAGCCUUCGGUGGCGCGAUAGCGCCAACGUUCUCAACUAUGACACGCAAAACGCGUGCUCCGUUGAAUGGAGUUUAUCAUG

Variants of: B1
Assay: polymerase ribozyme fitness, log enrichment relative to wild type (log ratio); higher = more active; in vitro selection for triplet polymerase activity
Procedure, shortened: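 After PCR construction and transcription, each subunit's mutant library from a heterodimeric triplet polymerase ribozyme was annealed with a biotinylated primer, the partner subunit and triplets. Incubation was frozen, at −7 °C, and extended constructs were gel-excised, bound to streptavidin beads and amplified by RT-PCR, in one selection round done in triplicate. Fitness is the logarithm of a genotype's enrichment divided by that of the wild type, from inverse-variance-weighted replicate averages of Illumina-sequenced inputs and outputs. The base of the logarithm is 2, and genotypes needed ≥10 input reads and ≥1 read per output.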

Row | Variant | polymerase ribozyme fitness (log ratio)
1 | C79G | -3.75
2 | G83U C118A | -1.04
3 | C43U C54A C79U A91U A142U G143A | ≤ -4.2
4 | C10U G42A A49U A64G G71A U139C | ≤ -4.2
5 | C10G A12G G84A U109G G141A | ≤ -4.2
6 | A19G C79G | ≤ -4.2
7 | U56A G58U A98U G100C | ≤ -4.2
8 | A17U C35U A66C C72U G80A C93A | ≤ -4.2
9 | U109G C116U | -1.39
10 | G59U G126A | 0.622
11 | A37C A40G G50U G86A A97U | ≤ -4.2
12 | C87A A119G A137G | ≤ -4.2
13 | C51U C118U | -0.957
14 | U109A U135C | -3.36
15 | U33G A47U A49G C75A C76U A91U C93G A98U C114A G136C | ≤ -4.2
16 | A12G A39G | -1.53
17 | A12G A39C | -1.68
18 | A37G A66U | ≤ -4.2
19 | A37G U55A C85U C96U A107C C125A U144A A147U | ≤ -4.2
20 | A41C G50A C96U | -1.93
21 | A30G A41U U55G C93U | ≤ -4.2

Row | Variant | polymerase ribozyme fitness (log ratio)
22 | C36A A138U U145A A147C | -3.85
23 | G71A C132U | -3.5
24 | A12C C105G | -2.6
25 | C27A A41G C54A C72G C103G G133U G141U U144A U145G | ≤ -4.2
26 | A91C U104A | ≤ -4.2
27 | A64C A66C C125U | ≤ -4.2
28 | C54A U90G | ≤ -4.2
29 | G11U G84A U144G | 0.53
30 | U7A C38U G65A A107G G136U U146C | ≤ -4.2
31 | U145C | 0.096
32 | A19U G58A G62A G67A A89G C108A C116A G152U | ≤ -4.2
33 | G42A U82G A91G G133A U134C G140C | ≤ -4.2
34 | A41G C103G | -1.94
35 | G58A C76G C125U C132A G133C | ≤ -4.2
36 | C14U U45A G50C C57A A91U C103G C105A | ≤ -4.2
37 | U82G C93U G141A | -0.284
38 | C85G C103A | ≤ -4.2
39 | A16U C76G G80C | ≤ -4.2
40 | A16G U33G A39C G58U U151G | ≤ -4.2
41 | A97U G100A | -4.1
42 | C36U U56A C85G C105A C116A | ≤ -4.2

Row | Variant | polymerase ribozyme fitness (log ratio)
43 | C57U C95A | -0.112
44 | C75U G84A U135A | -0.996
45 | C18G G42C C87U A138C U145A | ≤ -4.2
46 | A73G C75U C99A U101G A142G | ≤ -4.2
47 | A16U C18A A22U G48U U56G A66G G84U U144A | ≤ -4.2
48 | A16U A20C C27U A37U G59C A64C C85U A113G A120U C132U | ≤ -4.2
49 | U9A G48A G80C C87G A107U A113U | ≤ -4.2
50 | A28C A40C G48U G50C C95U G117C A119U C123U | ≤ -4.2
51 | A20C G50C C54U G58C G62A C103G C125U A142C | ≤ -4.2
52 | G58U U135G | -3.76
53 | A24U C85G | -2.77
54 | G48A A97G | -0.198
55 | U61C | -1.79
56 | U9A G83A | -4.06
57 | A49U C51U C79A A120G C123A | ≤ -4.2
58 | C10U A19U C32G G80A G88U A115G U146A | ≤ -4.2
59 | A24U C93U | -1.27
60 | U9A A24U U55A G68U U82C G94A A110U G136A | ≤ -4.2
61 | C27A C32U C95G A115C A122U C129A C131A | ≤ -4.2
62 | C14A C105U | -0.869
63 | G42U G48A U55A C118A A137G | ≤ -4.2

Row | Variant | polymerase ribozyme fitness (log ratio)
64 | G100A U146C | -4.17
65 | G71A G140U U148C | ≤ -4.2
66 | C87U A113U C116U | -1.99
67 | C32G C57U G83U C103A C116U U127G G143U | ≤ -4.2
68 | A21U C32U A52G C85A | -4.08
69 | G11C C38U G65U A122U | ≤ -4.2
70 | A29U C76G U82G G88C | ≤ -4.2
71 | U4A G136A | 0.134
72 | U56A G86C | ≤ -4.2
73 | C72G U127C G143U U144G | ≤ -4.2
74 | A107G U144G | -3.59
75 | A21G C75U A120G | 0.879
76 | U6G C14A C79A U145C | ≤ -4.2
77 | A49C A52U C132G | ≤ -4.2
78 | A12U A120C | -0.776
79 | C14U U56G U78C G86U | -4.1
80 | A22U G81A C125A | -0.142
81 | A16G A52C C87A U102A C118G C132U | ≤ -4.2
82 | A41C G50A A89U A113U A115G U146A | -4.05
83 | A17G A60G U61A A110G C118U C129A | ≤ -4.2
84 | A20G U82A C96G | 0.0125
